According to PMC8683085, “Serine ADP-ribosylation marks nucleosomes for ALC1-dependent chromatin remodeling” (eLife, 2021):

How the values were obtained:
[1] = target: PARP1 (full-length, N-terminal 6xHis-tag) (UniProt P09874)
[2] = target: PARP1 (full-length, N-terminal 6xHis-tag) (UniProt P09874); remark: listed apart in the source
[3] = target: H2BS6ADPr1 nucleosome, P68431

PARP1 (full-length, N-terminal 6xHis-tag), sequence (P09874 whole entry): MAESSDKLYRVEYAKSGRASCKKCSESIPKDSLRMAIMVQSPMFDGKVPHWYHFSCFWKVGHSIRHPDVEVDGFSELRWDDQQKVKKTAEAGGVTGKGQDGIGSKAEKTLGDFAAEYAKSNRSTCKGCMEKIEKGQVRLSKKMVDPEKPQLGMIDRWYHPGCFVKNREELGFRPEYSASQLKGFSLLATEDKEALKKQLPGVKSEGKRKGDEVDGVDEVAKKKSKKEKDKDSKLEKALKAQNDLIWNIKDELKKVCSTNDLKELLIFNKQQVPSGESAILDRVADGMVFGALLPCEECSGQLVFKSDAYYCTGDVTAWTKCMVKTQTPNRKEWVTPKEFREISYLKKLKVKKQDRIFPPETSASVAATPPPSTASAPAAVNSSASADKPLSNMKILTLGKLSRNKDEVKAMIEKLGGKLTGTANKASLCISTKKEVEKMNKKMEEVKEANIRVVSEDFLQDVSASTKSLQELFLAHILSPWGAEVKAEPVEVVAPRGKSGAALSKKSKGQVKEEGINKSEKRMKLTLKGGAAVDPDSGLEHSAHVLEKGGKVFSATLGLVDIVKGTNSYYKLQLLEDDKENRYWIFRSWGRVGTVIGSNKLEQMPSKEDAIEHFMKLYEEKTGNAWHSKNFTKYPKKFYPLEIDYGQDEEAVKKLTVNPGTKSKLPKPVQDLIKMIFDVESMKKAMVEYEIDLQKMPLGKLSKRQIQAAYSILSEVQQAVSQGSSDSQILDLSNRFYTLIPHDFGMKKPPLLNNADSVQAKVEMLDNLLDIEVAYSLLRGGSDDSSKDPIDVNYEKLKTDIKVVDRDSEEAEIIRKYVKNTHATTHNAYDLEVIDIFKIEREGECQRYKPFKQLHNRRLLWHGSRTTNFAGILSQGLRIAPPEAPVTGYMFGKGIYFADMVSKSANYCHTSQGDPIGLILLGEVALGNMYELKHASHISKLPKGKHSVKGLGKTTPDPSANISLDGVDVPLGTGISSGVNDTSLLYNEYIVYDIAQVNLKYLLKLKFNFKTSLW

B1: FLAG-HPF1 (amino acids 27-346) (natural protein)
chain: KFCEADVSSDLRKEVENHYKLSLPEDFYHFWKFCEELDPEKPSDSLSASLGLQLVGPYDILAGKHKTKKKSTGLNFNLHWRFYYDPPEFQTIIIGDNKTQYHMGYFRDSPDEFPVYVGINEAKKNCIIVPNGDNVFAAVKLFLTKKLREITDKKKINLLKNIDEKLTEAARELGYSLEQRTVKMKQRDKKVVTKTFHGAGLVVPVDKNDVGYRELPETDADLKRICKTIVEAASDEERLKAFAPIQEMMTFVQFANDECDYGMGLELGMDLFCYGSHYFHKVAGQLLPLAYNLLKRNLFAEIIEEHLANRSQENIDQLAA
Question: What does the source list for B1?
Answer: share of mono-ADP-ribosylated H3 (1-20) peptide among the products of the PARP1 ADPr reaction (RP-HPLC), HPF1 from 5 μM to 100 μM [1]: 94%; inhibition of PARP1-catalyzed ADP-ribose polymerization from the H3S10ADPr1 peptide (RP-HPLC); HPF1 concentration at 50% inhibition [2]: 14 µM

B2: ALC1 (full-length, 6xHis-1xFLAG-ALC1), Q86WJ1 1-897 (enzyme)
chain: MERAGATSRGGQAPGFLLRLHTEGRAEAARVQEQDLRQWGLTGIHLRSYQLEGVNWLAQRFHCQNGCILGDEMGLGKTCQTIALFIYLAGRLNDEGPFLILCPLSVLSNWKEEMQRFAPGLSCVTYAGDKEERACLQQDLKQESRFHVLLTTYEICLKDASFLKSFPWSVLVVDEAHRLKNQSSLLHKTLSEFSVVFSLLLTGTPIQNSLQELYSLLSFVEPDLFSKEEVGDFIQRYQDIEKESESASELHKLLQPFLLRRVKAEVATELPKKTEVVIYHGMSALQKKYYKAILMKDLDAFENETAKKVKLQNILSQLRKCVDHPYLFDGVEPEPFEVGDHLTEASGKLHLLDKLLAFLYSGGHRVLLFSQMTQMLDILQDYMDYRGYSYERVDGSVRGEERHLAIKNFGQQPIFVFLLSTRAGGVGMNLTAADTVIFVDSDFNPQNDLQAAARAHRIGQNKSVKVIRLIGRDTVEEIVYRKAASKLQLTNMIIEGGHFTLGAQKPAADADLQLSEILKFGLDKLLASEGSTMDEIDLESILGETKDGQWVSDALPAAEGGSRDQEEGKNHMYLFEGKDYSKEPSKEDRKSFEQLVNLQKTLLEKASQEGRSLRNKGSVLIPGLVEGSTKRKRVLSPEELEDRQKKRQEAAAKRRRLIEEKKRQKEEAEHKKKMAWWESNNYQSFCLPSEESEPEDLENGEESSAELDYQDPDATSLKYVSGDVTHPQAGAEDALIVHCVDDSGHWGRGGLFTALEKRSAEPRKIYELAGKMKDLSLGGVLLFPVDDKESRNKGQDLLALIVAQHRDRSNVLSGIKMAALEEGLKKIFLAAKKKKASVHLPRIGHATKGFNWYGTERLIRKHLAARGIPTYIYYFPRSKSAVLHSQSSSSSSRQLVP
modifications: here or on the partner: mono-ADP-ribose on S6
Question: With B2 as the binder, how does the ALC1 nucleosome remodeling rate constant (REA assay) [3] read?
Answer: < 0.0003 min⁻¹
